Experimental findings from patent US7125658B2, “Small protein that interacts with a ribonucleotide reductase subunit and uses thereof” (The Trustees of Columbia University in the City of New York, priority 1998, dated 2006) are described below.

Assay [1] addresses T1, yeast Rnr1p (Saccharomyces cerevisiae, UniProt P21524).
T1 construct: made in house; host or cells: E. coli BL21 (DE3), pET3a
T1 sequence (P21524 1-888): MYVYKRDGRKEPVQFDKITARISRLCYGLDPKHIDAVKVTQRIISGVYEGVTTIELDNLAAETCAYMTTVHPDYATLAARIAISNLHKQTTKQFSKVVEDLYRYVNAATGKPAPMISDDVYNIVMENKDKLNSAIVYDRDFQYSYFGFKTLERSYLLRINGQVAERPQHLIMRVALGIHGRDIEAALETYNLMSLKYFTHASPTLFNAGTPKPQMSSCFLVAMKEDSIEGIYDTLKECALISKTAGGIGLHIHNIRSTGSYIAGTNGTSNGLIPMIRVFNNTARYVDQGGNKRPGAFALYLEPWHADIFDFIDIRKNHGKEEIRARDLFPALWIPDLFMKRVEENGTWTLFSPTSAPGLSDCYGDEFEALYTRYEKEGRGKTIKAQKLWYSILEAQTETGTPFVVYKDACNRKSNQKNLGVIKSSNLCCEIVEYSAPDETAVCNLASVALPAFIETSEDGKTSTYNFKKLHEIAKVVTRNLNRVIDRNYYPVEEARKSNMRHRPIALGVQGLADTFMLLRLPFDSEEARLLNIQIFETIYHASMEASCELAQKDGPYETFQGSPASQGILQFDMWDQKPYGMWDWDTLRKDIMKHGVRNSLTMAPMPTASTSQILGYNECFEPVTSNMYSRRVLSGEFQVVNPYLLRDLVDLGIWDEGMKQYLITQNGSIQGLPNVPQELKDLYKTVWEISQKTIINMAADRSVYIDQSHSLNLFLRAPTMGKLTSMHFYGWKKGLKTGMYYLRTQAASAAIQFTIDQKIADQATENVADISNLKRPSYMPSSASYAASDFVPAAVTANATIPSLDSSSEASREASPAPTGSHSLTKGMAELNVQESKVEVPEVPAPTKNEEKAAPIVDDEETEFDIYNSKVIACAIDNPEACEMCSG
Briefly: BIAcore biosensor analysis, immobilized Sml1p and yeast Rnr1p. The assay is classed as binding. Here is the method:
BIAcore biosensor analysis. The interaction between Sml1p and either yeast Rnr1p or mouse R1 protein was studied by biosensor analysis using the BIAcore method (Biacore AB). The Sml1 protein was prepared in 10 mM sodium acetate, pH 5.2, at a concentration of 0.44 mg/ml; it was then immobilized on the dextran layer of the sensor chip as described previously for the mouse R2 protein (17). The ligand proteins were equilibrated with running buffer (10 mM Hepes-KOH, pH 7.4, 200 mM potassium acetate, 1 mM EDTA, 5 mM magnesium acetate and 0.05% Surfactant P20 (BIAcore). The interactions were studied at a constant temperature of 22° C. and a constant flow of 5 μl/min. Kinetics for the interaction of Sml1p with yeast Rnr1p was determined by allowing the immobilized Sml1p to interact with increasing concentrations of Rnr1p (18). The resonance unit (RU) is proportional to the mass, and 1 RU corresponds to a surface concentration of 1 pg of protein/mm^2 of the 100 nm thick dextran layer (19).
Kinetic studies of the interaction between the Rnr1 and Sml1 proteins using a biosensor technique. To obtain a quantitative description of the Rnr1p and Sml1p interaction, we immobilized the Sml1 protein to the dextran layer of a sensor chip, and then injected a series of solutions containing increasing concentrations of Rnr1p to the same sensor chip. The immobilization of Sml1p at a concentration of 0.44 mg/ml gave an increase of 91 resonance units (RU), which correspond to 91 pg/mm^2. With a surface of 0.8 mm 2, 91 RU corresponds to a total of 72.8 pg of bound Sml1p, which can be compared with the total injected amount of 15.4 μg. This low degree of attachment (only 0.0005%) makes it unlikely that the protein is attached to multiple binding sites.
In control experiments, where the same series of Rnr1p solutions passed a sensor chip without immobilized Sml1p, a “bulk effect” gave a response of only about 60 RU. The same background value of about 60 RU was observed when bovine serum albumin or Rnr2p/Rnr4p heterodimer was injected at a concentration of 0.1 mg/ml (data not shown). In FIG. 1B, the response at equilibrium is plotted against the concentration of injected Rnr1p. […] These values correspond to 691 pg/mm^2 or a total of 553 pg or 5.5 fmol Rnr1p monomer bound to about 6.2 fmol immobilized Sml1p, i.e. nearly one Rnr1p monomer bound per molecule of immobilized Sml1p. […] Calculating the equilibrium dissociation constant from these rate constants gave a K0 of about 0.25 μM, which is close to the directly determined K0.
On the technique in general: Surface plasmon resonance follows binding to a sensor surface in real time, without labels.

The target in assay [2] is T2, yeast RNR (Saccharomyces cerevisiae, UniProt P21524).
T2 construct: made in house; host or cells: E. coli BL21 (DE3), pET3a
T2 sequence (P21524 1-888): T1 sequence (P21524 1-888)
Briefly: in vitro yeast ribonucleotide reductase CDP reduction assay. The assay is classed as biochemical. Here is the method:
FIG. 9 Inhibition of yeast RNR by Sml1p. A series of tubes containing yeast RNR ([…]) were incubated at 30° C. for 30 min in a final volume of 50 μl: 25 nmol of [^3H]CDP (specific activity 37000 cpm/nmol), 2 μmol of Tris-HCl, pH 7.6, 0.125 μmol of ATP, 0.32 μmol of MgCl^2, 0.5 μmol of dithiothreitol, 5 μmol of KCl and 1 nmol of FeCl3. In addition, the tubes contained increasing amounts of Sml1p. After incubation, the samples were processed as described earlier to obtain the amount of dCDP formed (22).
FIG. 10 Inhibition of yeast RNR by nonapeptides corresponding to the C terminal ends of Sml1p, Rnr2p or Rnr4p. […] 9 in the presence of increasing amounts of nonapeptide. Sml1 peptide, ã; Rnr2 peptide, o; Rnr4 peptide, x.
Inhibition of yeast ribonucleotide reductase by the Sml1 protein. Recombinant yeast ribonucleotide reductase was assayed for activity using a CDP reduction assay, with ATP as a positive effector in the presence of increasing amounts of Sml1 protein (FIG. 9). A molar ratio of 1:1 between Rnr1p monomer (MW 100000) and Sml1p (MW 11800) gave about 50% inhibition.
Inhibition of yeast ribonucleotide reductase by nonapeptides corresponding to the C-terminal ends of Sml1p, Rnr2p or Rnr4p. […] Since such peptides are known to inhibit RNR activity by binding to the R1 protein and preventing R1/R2 interaction, we wanted to study the influence of a C-terminal nonapeptide of Sml1p on yeast RNR activity.

Where [3] appears, read: BIAevaluation software, lower curves of FIG. 12A.

B1: Sml1p: 104 amino acid yeast protein encoded by YML058w (SML1) that binds Rnr1 and inhibits ribonucleotide reductase; recombinant, expressed in E. coli (protein)
chain: MQNSQDYFYAQNRCQQQQAPSTLRTVTMAEFRRVPLPPMAEVPMLSTQNSMGSSASASASSLEMWEKDLEERLNSIDHDMNNNKFGSGELKSMFNQGKVEEMDF
Regarding B1, in assay [1] (setting [3]), the association rate constant result was “about 153000 M^1s^−1” and the dissociation rate constant came out at 0.04 s⁻¹. This molecule also had a maximal binding in assay [1] (Rnr1p bound to immobilized Sml1p (91 RU)) of 691 RU. Also, in assay [1] (immobilized Sml1p, mobile phase Rnr1p, 22° C., response at equilibrium fitted to one site binding model, read-out: equilibrium dissociation constant (KD)), the Kd was found to be 400 nM. Further, the “efficiency in inhibiting yeast RNR activity relative to its C terminal nonapeptide, on a molar basis” value in assay [2] was “about 200 times”. Moreover, in assay [2] (Rnr2p/Rnr4p 1 to 32 μg, Rnr1p 2 μg, Sml1p 0, 0.2 and 2 μg), the “type of inhibition versus Rnr2p/Rnr4p heterodimer” value was “noncompetitive inhibition”. The “inhibition of yeast RNR” value in assay [2] (molar ratio of 1:1 between Rnr1p monomer and Sml1p, CDP reduction, ATP as positive effector) is reported as “about 50%”.

The term Kd denotes a measure of binding affinity in units of concentration.
